Test results: the MegaScale stability set (Tsuboyama et al. 2023)

B1: EEHEE_rd3_0130 (parent)
chain: TKIIVNGKTFTAPTEEEAQKIAEKLAKKAGLTVHKKNGTFELK

Variants of: B1
Assay: folding stability dG (cDNA display proteolysis); higher = more stable
Settings: PBS, room temperature

Folding stability dG [kcal/mol] of substitutions, site by site:
I4: S 0.124; D -0.441; Q 0.068; K 0.465; R 0.615; L 0.583; H 0.173; M 0.561; F 0.575; E -0.066; V 0.695; W 0.365; P -0.499; T 0.449; G -0.461; A -0.213; Y 0.689; N -0.074
E16: N 0.47; I 0.723; H 0.749; Q 0.827; D 0.611; T 0.649; Y 0.864; L 0.722; W 0.933; S 0.797; V 0.573; F 0.765; G 0.554; P 0.061; A 0.911; C 0.888; R 0.892; M 0.821; K 0.756
E15: D 0.325; W 0.965; A 0.725; H 0.545; F 1; S 0.561; G 0.188; T 0.439; C 1.07; V 0.847; Q 0.576; R 0.366; Y 1.42; P 0.736; M 0.994; K 0.359; I 0.689; L 0.994; N 0.31
V5: T -0.197; E -0.633; A 0.171; P -0.548; Y 1.4; D -0.878; K -0.361; Q -0.462; M 0.826; N -0.497; W 1.48; H 0.397; G -0.75; R -0.49; I 1.13; C 1.63; L 0.73; S -0.322; F 1.31
Q19: F 0.959; S 0.739; H 0.606; K 0.789; Y 1.03; L 0.972; P -0.468; E 0.914; C 1.25; D -0.048; G 0.357; I 0.665; W 1.12; V 0.457; N 0.383; R 1.04; M 0.872; A 0.824; T 0.379
A18: V -0.585; Q -0.715; F -0.368; K -0.952; S -0.692; W -0.4; Y -0.863; I -0.353; T -0.68; N -0.938; M -0.37; D -0.679; R -0.569; G 0.375; C 0.561; E -0.74; L -0.286
E17: T 0.526; S 0.635; K 0.72; M 1.19; G 0.263; F 0.623; P -0.793; H 0.567; Y 0.614; W 0.923; A 0.997; I 1.33; R 0.677; L 1.25; Q 0.916; D 0.564; C 1.46; N 0.064; V 0.922
A12: S 0.182; F 1.81; M 1.02; R 0.461; V 1.34; W 0.836; I 1.26; T 0.083; L 1.19; D -0.138; K -0.014; H 0.346; E -0.465; N -0.407; Q -0.091; Y 1.63; G 0.091
I3: R -0.394; F 0.035; D -0.633; M -0.368; S -0.742; E -0.908; Y 0.08; Q -0.664; L -0.098; P -0.552; W -0.228; H -0.416; T -0.896; V 0.523
T11: R 0.493; D -0.3; E 0.261; A 0.154; Q 0.319; M 0.947; S 0.624; Y 1.42; G -0.004; I 1.03; F 1.38; C 1.63; N 0.328; L 0.81; V 0.762; W 1.68; K 0.248; H 0.697
T14: W 0.054; K -0.4; Y -0.419; P -0.49; E -0.71; N 0.897; V -0.396; L -0.412; F -0.544; G 0.32; D 0.286; C 0.682; Q -0.297; H -0.337; M -0.226; A -0.233; I -0.354; S 0.86; R -0.419
T9: M 0.652; E 0.17; F 0.699; A 0.394; R -0.066; G -0.452; Y 0.633; Q 0.38; C 1.66; V 1.12; N -0.378; S 0.461; L 0.562; P -0.619; I 1.01; K 0.007; H 0.114; W 0.968
G7: Q 0.025; Y 0.159; A 0.007; M -0.071; N 0.208; V -0.592; F 0.265; H 0.106; I -0.201; L -0.186; E -0.721; P -0.749; R 0.021; W 0.187; C 0.961; S -0.025; D -0.326; T -0.032; K 0.029
I21: N -0.725; P -0.76; Q -0.043; A -0.095; W 1.3; K 0.005; M 0.647; Y 0.645; V 0.46; D -0.719; R 0.152; S -0.174; F 1.01; T -0.08; C 1.51; H -0.132; E -0.19; L 0.99
K20: E 0.663; M 0.854; F 0.767; L 0.783; H 0.597; A 0.82; V 0.724; T 0.562; R 1.01; P -0.378; Y 0.745; N 0.548; S 0.688; G 0.122; Q 0.722; W 0.804; I 0.836; D 0.538
F10: I 0.454; Y 0.851; V -0.708; W 0.82; L 0.392; M 0.05
A22: C 0.374; E -0.91
K8: I 0.962; N 0.238; S 0.223; W 1.53; Y 1.33; T 0.475; V 0.864; H 0.948; A 0.511; D -0.391; F 1.25; M 0.926; L 0.895; E 0.053; Q 0.67; G -0.232; R 0.999
N6: V -0.097; M 0.863; A 0.745; I 0.222; Q 0.329; H 0.793; K 0.266; T -0.318; D 0.319; R 0.555; L 0.861; E 0.325; W 1.47; F 1.61; P -0.076; Y 1.42; C 2.05; G 1.02; S 0.36
P13: C 0.981; W 0.532; K 0.854; A 0.804; L 0.492; M 0.526; Q 0.651; R 0.954; D 0.664; Y 0.302; E 0.598; I 0.41; V 0.451; S 0.761; G 0.731; T 0.634; N 0.67; H 0.651; F 0.391
